Measured values taken from the supplement of paper PMC5998384.

Tests used:
[1] = system: HeLa Kyoto; test: melting temperature (median over replicates), in situ; higher = more thermally stable
[2] = system: HeLa Kyoto; test: solubility change mitosis vs G1/S (difference of NP-40 vs SDS log2 ratios) (log2 ratio difference); higher = more soluble in mitosis
[3] = system: HeLa Kyoto; test: solubility in G1/S (NP-40 vs SDS abundance) (log2 ratio); higher = more soluble; conditions: cell cycle stage: G1/S
[4] = system: HeLa Kyoto; test: thermal stability score vs G1/S (z-score of summed log2 fold changes over temperatures); higher = more thermally stable than in G1/S
[5] = cell cycle stage: early G1 (4.5 h after nocodazole release)
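Wherever melting temperature (median over replicates), in situ is given: HeLa Kyoto cells synchronized by double thymidine or nocodazole block, proteins quantified by TMT10plex mass spectrometry, three independent biological replicates.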
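Wherever solubility change mitosis vs G1/S (difference of NP-40 vs SDS log2 ratios) is given: synchronized HeLa Kyoto cells (double thymidine block for G1/S, nocodazole release for mitosis), protein amounts in NP-40 versus SDS lysates quantified by mass spectrometry, three biological replicates.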
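Wherever solubility in G1/S (NP-40 vs SDS abundance) is given: HeLa Kyoto cells arrested at G1/S by double thymidine block, proteins quantified by TMT10plex mass spectrometry in mild NP-40 versus SDS extracts, three biological replicates.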
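Wherever thermal stability score vs G1/S (z-score of summed log2 fold changes over temperatures) is given: synchronized HeLa Kyoto cells, proteins quantified by TMT10plex mass spectrometry, three biological replicates, mitosis taken 0.5 h after nocodazole release, G1/S directly after double thymidine block.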

POLD2, sequence (chain, as listed by the source): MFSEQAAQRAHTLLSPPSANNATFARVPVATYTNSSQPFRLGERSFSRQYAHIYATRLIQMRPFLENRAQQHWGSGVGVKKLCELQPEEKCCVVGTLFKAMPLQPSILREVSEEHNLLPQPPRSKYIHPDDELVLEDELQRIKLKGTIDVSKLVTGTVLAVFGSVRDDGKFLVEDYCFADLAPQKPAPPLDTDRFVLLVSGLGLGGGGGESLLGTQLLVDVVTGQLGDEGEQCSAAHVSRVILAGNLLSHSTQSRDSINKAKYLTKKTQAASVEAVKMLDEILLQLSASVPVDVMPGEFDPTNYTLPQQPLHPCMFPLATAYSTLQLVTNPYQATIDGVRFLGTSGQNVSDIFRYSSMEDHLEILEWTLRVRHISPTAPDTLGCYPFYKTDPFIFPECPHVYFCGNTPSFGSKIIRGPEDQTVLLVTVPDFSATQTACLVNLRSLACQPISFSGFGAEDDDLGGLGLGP
HNRNPAB, sequence (chain, as listed by the source): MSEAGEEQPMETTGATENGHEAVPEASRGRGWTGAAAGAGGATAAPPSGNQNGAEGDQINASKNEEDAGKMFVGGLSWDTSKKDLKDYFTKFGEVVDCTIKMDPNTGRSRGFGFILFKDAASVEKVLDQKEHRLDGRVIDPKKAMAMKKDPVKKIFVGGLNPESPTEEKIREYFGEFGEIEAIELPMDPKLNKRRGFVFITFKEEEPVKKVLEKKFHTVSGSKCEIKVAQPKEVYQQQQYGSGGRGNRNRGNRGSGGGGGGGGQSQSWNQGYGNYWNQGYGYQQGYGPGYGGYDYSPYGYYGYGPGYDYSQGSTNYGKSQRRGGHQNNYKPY

Row | Substance | melting temperature ([1]; cell cycle stage: G1/S) | melting temperature ([1]; cell cycle stage: mitosis) | solubility change mitosis (log2) [2] | solubility in G1/S (log2) [3] | thermal stability score [4, 5] | thermal stability score ([4]; cell cycle stage: mitosis)
1 | MASPGIEVELLGKGHSDLGEVAPEIKASERRTAVAIADLEWREMEGDDCEFRYGDGTNEAQDNDFPTVERSRLQEMLSLLGLETYQVQKLSLQDSLQISFDSMKNWAPQVPKDLPWNFLRKLQALNADARNTTMVLDVLPDARPVEKESQMEEEIIYWDPADDLAADIYSFSELPTPDTPVNPLDLLCALLLSSDSFLQQEIALKMALCQFALPLVLPDSENHYHTFLLWAMRGIVRTWWSQPPRGMGSFREDSVVLSRAPAFAFVRMDVSSNSKSQLLNAVLSPGHRQWDCFWHRDLNLGTNAREISDGLVEISWFFPSGREDLDIFPEPVAFLNLRGDIGSHWLQFKLLTEISSAVFILTDNISKKEYKLLYSMKESTTKYYFILSPYRGKRNTNLRFLNKLIPVLKIDHSHVLVKVSSTDSDSFVKRIRAIVGNVLRAPCRRVSVEDMAHAARKLGLKVDEDCEECQKAKDRMERITRKIKDSDAYRRDELRLQGDPWRKAAQVEKEFCQLQWAVDPPEKHRAELRRRLLELRMQQNGHDPSSGVQEFISGISSPSLSEKQYFLRWMEWGLARVAQPRLRQPPETLLTLRPKHGGTTDVGEPLWPEPLGVEHFLREMGQFYEAESCLVEAGRLPAGQRRFAHFPGLASELLLTGLPLELIDGSTLSMPVRWVTGLLKELHVRLERRSRLVVLSTVGVPGTGKSTLLNTMFGLRFATGKSCGPRGAFMQLITVAEGFSQDLGCDHILVIDSGGLIGGALTSAGDRFELEASLATLLMGLSNVTVISLAETKDIPAAILHAFLRLEKTGHMPNYQFVYQNLHDVSVPGPRPRDKRQLLDPPGDLSRAAAQMEKQGDGFRALAGLAFCDPEKQHIWHIPGLWHGAPPMAAVSLAYSEAIFELKRCLLENIRNGLSNQNKNIQQLIELVRRL [URGCP] | 49.3 °C | 49.8 °C | -0.0805 | -0.246 | 0.429 | 0.88
2 | POLD2 | 49.9 °C | 49.5 °C | -0.136 | 0.263 | 1.48 | 2.07
3 | HNRNPAB | 55.3 °C | 54.4 °C | 0.251 | 0.308 | -0.524 | -3.14
4 | MSLSENSVFAYESSVHSTNVLLSLNDQRKKDVLCDVTIFVEGQRFRAHRSVLAACSSYFHSRIVGQADGELNITLPEEVTVKGFEPLIQFAYTAKLILSKENVDEVCKCVEFLSVHNIEESCFQFLKFKFLDSTADQQECPRKKCFSSHCQKTDLKLSLLDQRDLETDEVEEFLENKNVQTPQCKLRRYQGNAKASPPLQDSASQTYESMCLEKDAALALPSLCPKYRKFQKAFGTDRVRTGESSVKDIHASVQPNERSENECLGGVPECRDLQVMLKCDESKLAMEPEETKKDPASQCPTEKSEVTPFPHNSSIDPHGLYSLSLLHTYDQYGDLNFAGMQNTTVLTEKPLSGTDVQEKTFGESQDLPLKSDLGTREDSSVASSDRSSVEREVAEHLAKGFWSDICSTDTPCQMQLSPAVAKDGSEQISQKRSECPWLGIRISESPEPGQRTFTTLSSVNCPFISTLSTEGCSSNLEIGNDDYVSEPQQEPCPYACVISLGDDSETDTEGDSESCSAREQECEVKLPFNAQRIISLSRNDFQSLLKMHKLTPEQLDCIHDIRRRSKNRIAAQRCRKRKLDCIQNLESEIEKLQSEKESLLKERDHILSTLGETKQNLTGLCQKVCKEAALSQEQIQILAKYSAADCPLSFLISEKDKSTPDGELALPSIFSLSDRPPAVLPPCARGNSEPGYARGQESQQMSTATSEQAGPAEQCRQSGGISDFCQQMTDKCTTDE [BACH1] | 53.6 °C | 53.1 °C | 0.0971 | -0.0438 | -0.135 | -2.84
5 | MGQNDLMGTAEDFADQFLRVTKQYLPHVARLCLISTFLEDGIRMWFQWSEQRDYIDTTWNCGYLLASSFVFLNLLGQLTGCVLVLSRNFVQYACFGLFGIIALQTIAYSILWDLKFLMRNLALGGGLLLLLAESRSEGKSMFAGVPTMRESSPKQYMQLGGRVLLVLMFMTLLHFDASFFSIVQNIVGTALMILVAIGFKTKLAALTLVVWLFAINVYFNAFWTIPVYKPMHDFLKYDFFQTMSVIGGLLLVVALGPGGVSMDEKKKEW [SURF4] | 57.4 °C | 56.2 °C | 0.00821 | 0.185 | -0.529 | -2.05
6 | ARHGEF5 | 50.6 °C | 51.4 °C | -0.0134 | 0.0254 | 0.0128 | 1.32
7 | MVVLSVPAEVTVILLDIEGTTTPIAFVKDILFPYIEENVKEYLQTHWEEEECQQDVSLLRKQAEEDAHLDGAVPIPAASGNGVDDLQQMIQAVVDNVCWQMSLDRKTTALKQLQGHMWRAAFTAGRMKAEFFADVVPAVRKWREAGMKVYIYSSGSVEAQKLLFGHSTEGDILELVDGHFDTKIGHKVESESYRKIADSIGCSTNNILFLTDVTREASAAEEADVHVAVVVRPGNAGLTDDEKTYYSLITSFSELYLPSST [ENOPH1] | 50.6 °C | 50.7 °C | -0.175 | 0.267 | 2.1 | 3.35
8 | MAQPPPDVEGDDCLPAYRHLFCPDLLRDKVAFITGGGSGIGFRIAEIFMRHGCHTVIASRSLPRVLTAARKLAGATGRRCLPLSMDVRAPPAVMAAVDQALKEFGRIDILINCAAGNFLCPAGALSFNAFKTVMDIDTSGTFNVSRVLYEKFFRDHGGVIVNITATLGNRGQALQVHAGSAKAAVDAMTRHLAVEWGPQNIRVNSLAPGPISGTEGLRRLGGPQASLSTKVTASPLQRLGNKTEIAHSVLYLASPLASYVTGAVLVADGGAWLTFPNGVKGLPDFASFSAKL [DECR2] | 51.9 °C | 52.1 °C | -0.232 | 0.0495 | 1.32 | 0.657
9 | MEDTPLVISKQKTEVVCGVPTQVVCTAFSSHILVVVTQFGKMGTLVSLEPSSVASDVSKPVLTTKVLLGQDEPLIHVFAKNLVAFVSQEAGNRAVLLAVAVKDKSMEGLKALREVIRVCQVW [PSMG3] | 57.8 °C | 56.2 °C | -0.0857 | 0.13 | -1.46 | -2.93
10 | MSLLLYYALPALGSYAMLSIFFLRRPHLLHTPRAPTFRIRLGAHRGGSGELLENTMEAMENSMAQRSDLLELDCQLTRDRVVVVSHDENLCRQSGLNRDVGSLDFEDLPLYKEKLEVYFSPGHFAHGSDRRMVRLEDLFQRFPRTPMSVEIKGKNEELIREIAGLVRRYDRNEITIWASEKSSVMKKCKAANPEMPLSFTISRGFWVLLSYYLGLLPFIPIPEKFFFCFLPNIINRTYFPFSCSCLNQLLAVVSKWLIMRKSLIRHLEERGVQVVFWCLNEESDFEAAFSVGATGVITDYPTALRHYLDNHGPAARTS [GDPD3] | 56.4 °C | 55.1 °C | -0.0964 | -0.262 | -0.274 | 0.35
11 | MAEAALLLLPEAAAERDAREKLALWDRRPDTTAPLTDRQTDSVLELKAAAENLPVPAELPIEDLCSLTSQSLPIELTSVVPESTEDILLKGFTSLGMEEERIETAQQFFSWFAKLQTQMDQDEGTKYRQMRDYLSGFQEQCDAILNDVNSALQHLESLQKQYLFVSNKTGTLHEACEQLLKEQSELVDLAENIQQKLSYFNELETINTKLNSPTLSVNSDGFIPMLAKLDDCITYISSHPNFKDYPIYLLKFKQCLSKALHLMKTYTVNTLQTLTSQLLKRDPSSVPNADNAFTLFYVKFRAAAPKVRTLIEQIELRSEKIPEYQQLLNDIHQCYLDQRELLLGPSIACTVAELTSQNNRDHCALVRSGCAFMVHVCQDEHQLYNEFFTKPTSKLDELLEKLCVSLYDVFRPLIIHVIHLETLSELCGILKNEVLEDHVQNNAEQLGAFAAGVKQMLEDVQERLVYRTHIYIQTDITGYKPAPGDLAYPDKLVMMEQIAQSLKDEQKKVPSEASFSDVHLEEGESNSLTKSGSTESLNPRPQTTISPADLHGMWYPTVRRTLVCLSKLYRCIDRAVFQGLSQEALSACIQSLLGASESISKNKTQIDGQLFLIKHLLILREQIAPFHTEFTIKEISLDLKKTRDAAFKILNPMTVPRFFRLNSNNALIEFLLEGTPEIREHYLDSKKDVDRHLKSACEQFIQQQTKLFVEQLEEFMTKVSALKTMASQGGPKYTLSQQPWAQPAKVNDLAATAYKTIKTKLPVTLRSMSLYLSNKDTEFILFKPVRNNIQQVFQKFHALLKEEFSPEDIQIIACPSMEQLSLLLLVSK [COG3] | 50.9 °C | 49.7 °C | -0.0733 | 0.235 | 0.629 | 1.07
12 | ABCC5 | 53.6 °C | 53.8 °C | 0.0132 | -0.243 | -0.48 | -1.25
13 | MGCAEGKAVAAAAPTELQTKGKNGDGRRRSAKDHHPGKTLPENPAGFTSTATADSRALLQAYIDGHSVVIFSRSTCTRCTEVKKLFKSLCVPYFVLELDQTEDGRALEGTLSELAAETDLPVVFVKQRKIGGHGPTLKAYQEGRLQKLLKMNGPEDLPKSYDYDLIIIGGGSGGLAAAKEAAQYGKKVMVLDFVTPTPLGTRWGLGGTCVNVGCIPKKLMHQAALLGQALQDSRNYGWKVEETVKHDWDRMIEAVQNHIGSLNWGYRVALREKKVVYENAYGQFIGPHRIKATNNKGKEKIYSAERFLIATGERPRYLGIPGDKEYCISSDDLFSLPYCPGKTLVVGASYVALECAGFLAGIGLDVTVMVRSILLRGFDQDMANKIGEHMEEHGIKFIRQFVPIKVEQIEAGTPGRLRVVAQSTNSEEIIEGEYNTVMLAIGRDACTRKIGLETVGVKINEKTGKIPVTDEEQTNVPYIYAIGDILEDKVELTPVAIQAGRLLAQRLYAGSTVKCDYENVPTTVFTPLEYGACGLSEEKAVEKFGEENIEVYHSYFWPLEWTIPSRDNNKCYAKIICNTKDNERVVGFHVLGPNAGEVTQGFAAALKCGLTKKQLDSTIGIHPVCAEVFTTLSVTKRSGASILQAGCUG [TXNRD1] | 52 °C | 51.9 °C | -0.101 | 0.0191 | 1.37 | -1.27
14 | MSDTSESGAGLTRFQAEASEKDSSSMMQTLLTVTQNVEVPETPKASKALEVSEDVKVSKASGVSKATEVSKTPEAREAPATQASSTTQLTDTQVLAAENKSLAADTKKQNADPQAVTMPATETKKVSHVADTKVNTKAQETEAAPSQAPADEPEPESAAAQSQENQDTRPKVKAKKARKVKHLDGEEDGSSDQSQASGTTGGRRVSKALMASMARRASRGPIAFWARRASRTRLAAWARRALLSLRSPKARRGKARRRAAKLQSSQEPEAPPPRDVALLQGRANDLVKYLLAKDQTKIPIKRSDMLKDIIKEYTDVYPEIIERAGYSLEKVFGIQLKEIDKNDHLYILLSTLEPTDAGILGTTKDSPKLGLLMVLLSIIFMNGNRSSEAVIWEVLRKLGLRPGIHHSLFGDVKKLITDEFVKQKYLDYARVPNSNPPEYEFFWGLRSYYETSKMKVLKFACKVQKKDPKEWAAQYREAMEADLKAAAEAAAEAKARAEIRARMGIGLGSENAAGPCNWDEADIGPWAKARIQAGAEAKAKAQESGSASTGASTSTNNSASASASTSGGFSAGASLTATLTFGLFAGLGGAGASTSGSSGACGFSYK [MAGED2] | 46.9 °C | 48.4 °C | -0.157 | 0.259 | 2.46 | 4.54
15 | MSTSWSDRLQNAADMPANMDKHALKKYRREAYHRVFVNRSLAMEKIKCFGFDMDYTLAVYKSPEYESLGFELTVERLVSIGYPQELLSFAYDSTFPTRGLVFDTLYGNLLKVDAYGNLLVCAHGFNFIRGPETREQYPNKFIQRDDTERFYILNTLFNLPETYLLACLVDFFTNCPRYTSCETGFKDGDLFMSYRSMFQDVRDAVDWVHYKGSLKEKTVENLEKYVVKDGKLPLLLSRMKEVGKVFLATNSDYKYTDKIMTYLFDFPHGPKPGSSHRPWQSYFDLILVDARKPLFFGEGTVLRQVDTKTGKLKIGTYTGPLQHGIVYSGGSSDTICDLLGAKGKDILYIGDHIFGDILKSKKRQGWRTFLVIPELAQELHVWTDKSSLFEELQSLDIFLAELYKHLDSSSNERPDISSIQRRIKKVTHDMDMCYGMMGSLFRSGSRQTLFASQVMRYADLYAASFINLLYYPFSYLFRAAHVLMPHESTVEHTHVDINEMESPLATRNRTSVDFKDTDYKRHQLTRSISEIKPPNLFPLAPQEITHCHDEDDDEEEEEEEE [NT5C2] | 56.5 °C | 56.3 °C | -0.133 | -0.096 | -0.51 | -1.23
